Results: article PMC10397247

Assays:
[1] = molecular target: T1, 4H745-AA; assay: two-hybrid library CCmax; conditions: mean of both orientations;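 note: natural log of median RNA to DNA barcode read ratio; higher means stronger binding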
T1 chain: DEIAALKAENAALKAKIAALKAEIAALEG

[2] = molecular target: T2, 4H629-AA; assay: two-hybrid library CCmax; conditions: mean of both orientations;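 note: natural log of median RNA to DNA barcode read ratio; higher means stronger binding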
T2 chain: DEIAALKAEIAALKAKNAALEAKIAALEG

[3] = molecular target: T3, 4H458-AA; assay: two-hybrid library CCmax; conditions: mean of both orientations;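 note: natural log of median RNA to DNA barcode read ratio; higher means stronger binding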
T3 chain: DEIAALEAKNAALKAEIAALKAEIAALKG

[4] = molecular target: T4, 4H3410-AA; assay: two-hybrid library CCmax; conditions: mean of both orientations;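 note: natural log of median RNA to DNA barcode read ratio; higher means stronger binding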
T4 chain: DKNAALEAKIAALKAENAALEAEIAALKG

[5] = molecular target: T5, 4H3381-AA; assay: two-hybrid library CCmax;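 note: natural log of median RNA to DNA barcode read ratio; higher means stronger binding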
T5 chain: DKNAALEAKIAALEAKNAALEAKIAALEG

[6] = molecular target: T6, 4H797-AA; assay: two-hybrid library CCmax; conditions: mean of both orientations;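 note: natural log of median RNA to DNA barcode read ratio; higher means stronger binding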
T6 chain: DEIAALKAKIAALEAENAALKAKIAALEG

[7] = molecular target: T7, 4H891-AA; assay: two-hybrid library CCmax; conditions: mean of both orientations
T7 chain: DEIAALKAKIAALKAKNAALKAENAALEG

[8] = molecular target: T8, 4H570-AA; assay: two-hybrid library CCmax; conditions: mean of both orientations
T8 chain: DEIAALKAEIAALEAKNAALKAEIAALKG

[9] = molecular target: T9, 4H710-AA; assay: two-hybrid library CCmax; conditions: mean of both orientations
T9 chain: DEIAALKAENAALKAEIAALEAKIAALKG

[10] = molecular target: T10, 4H536-AA; assay: two-hybrid library CCmax; conditions: mean of both orientations
T10 chain: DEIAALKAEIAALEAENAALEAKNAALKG

[11] = molecular target: T11, 4H485-AA; assay: two-hybrid library CCmax; conditions: mean of both orientations
T11 chain: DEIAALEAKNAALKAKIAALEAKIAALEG

[12] = molecular target: T12, 4H930-AA; assay: two-hybrid library CCmax; conditions: mean of both orientations
T12 chain: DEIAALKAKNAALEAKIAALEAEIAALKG

[13] = molecular target: T13, 4H3590-AA; assay: two-hybrid library CCmax; conditions: mean of both orientations
T13 chain: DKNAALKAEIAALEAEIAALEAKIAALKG

[14] = molecular target: T14, 4H376-AA; assay: two-hybrid library CCmax; conditions: mean of both orientations
T14 chain: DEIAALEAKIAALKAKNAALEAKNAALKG

[15] = molecular target: T15, 4H347-AA; assay: two-hybrid library CCmax; conditions: mean of both orientations
T15 chain: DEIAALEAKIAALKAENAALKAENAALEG

[16] = molecular target: T16, 4H850-AA; assay: two-hybrid library CCmax; conditions: mean of both orientations
T16 chain: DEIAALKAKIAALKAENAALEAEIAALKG

[17] = molecular target: T17, 4H406-AA; assay: two-hybrid library CCmax; conditions: mean of both orientations
T17 chain: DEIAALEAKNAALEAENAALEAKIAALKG

[18] = molecular target: T18, 4H94-AA; assay: two-hybrid library CCmax; conditions: mean of both orientations
T18 chain: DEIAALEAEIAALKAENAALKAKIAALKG

[19] = molecular target: T19, 4H3753-AA; assay: two-hybrid library CCmax; conditions: mean of both orientations
T19 chain: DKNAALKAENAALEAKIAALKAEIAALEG

[20] = molecular target: T20, 4H3493-AA; assay: two-hybrid library CCmax; conditions: mean of both orientations
T20 chain: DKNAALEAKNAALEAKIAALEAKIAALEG

[21] = molecular target: T21, 4H963-AA; assay: two-hybrid library CCmax; conditions: mean of both orientations
T21 chain: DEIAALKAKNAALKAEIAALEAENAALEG

[22] = molecular target: T22, 4H909-AA; assay: two-hybrid library CCmax; conditions: mean of both orientations
T22 chain: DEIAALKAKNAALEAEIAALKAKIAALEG

[23] = molecular target: T23, 4H688-AA; assay: two-hybrid library CCmax; conditions: mean of both orientations
T23 chain: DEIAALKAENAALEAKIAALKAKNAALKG

[24] = molecular target: T24, 4H3697-AA; assay: two-hybrid library CCmax; conditions: mean of both orientations
T24 chain: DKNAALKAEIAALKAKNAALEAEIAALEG

[25] = molecular target: T25, 4H3395-AA; assay: two-hybrid library CCmax; conditions: mean of both orientations
T25 chain: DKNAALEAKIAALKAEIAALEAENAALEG

[26] = molecular target: T26, 4H3865-AA; assay: two-hybrid library CCmax; conditions: mean of both orientations
T26 chain: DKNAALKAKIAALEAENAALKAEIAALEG

[27] = molecular target: T27, O8-bS; assay: two-hybrid library CCNG1
T27 chain: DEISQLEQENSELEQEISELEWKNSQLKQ

[28] = molecular target: T28, O9-bS; assay: two-hybrid library CCNG1
T28 chain: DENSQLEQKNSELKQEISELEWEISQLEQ

[29] = molecular target: T29, O6-bS; assay: two-hybrid library CCNG1
T29 chain: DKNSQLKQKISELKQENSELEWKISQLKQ

[30] = molecular target: T30, O7-bS; assay: two-hybrid library CCNG1
T30 chain: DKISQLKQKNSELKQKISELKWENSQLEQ

[31] = molecular target: T31, O9; assay: two-hybrid library CCNG1
T31 chain: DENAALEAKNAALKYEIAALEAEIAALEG

[32] = molecular target: T32, O8; assay: two-hybrid library CCNG1
T32 chain: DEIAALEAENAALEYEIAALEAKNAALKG

[33] = molecular target: T33, O7; assay: two-hybrid library CCNG1
T33 chain: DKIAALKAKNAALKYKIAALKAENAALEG

Binder: DKNAALEAKIAALEAKNAALEAKIAALEG [4H3381-AA]
- interaction score [1]: -1.6
- interaction score [2]: -1.4
- interaction score [3]: -1.53
- interaction score [4]: -1.09
- interaction score [5]: 0.71
- interaction score [6]: -1.57
- interaction score [7]: -1.56
- interaction score [8]: -1.34
- interaction score [9]: -1.49
- interaction score [10]: -1.65
- interaction score [11]: -0.941
- interaction score [12]: -1.38
- interaction score [13]: -1.02
- interaction score [14]: -1.55
- interaction score [15]: -1.55
- interaction score [16]: -1.85
- interaction score [17]: -1.15
- interaction score [18]: -1.76
- interaction score [19]: -1.71
- interaction score [20]: -1.77
- interaction score [21]: -2.17
- interaction score [22]: -1.66
- interaction score [23]: -1.36
- interaction score [24]: -1.45
- interaction score [25]: -1.66
- interaction score [26]: -1.52

Binder: DKNSQLKQKISELKQENSELEWKISQLKQ [O6-bS]
- interaction score [27]: -1.78
- interaction score [28]: -0.588
- interaction score [29]: -1.84
- interaction score [30]: -0.489

Binder: DKIAALKAKNAALKYKIAALKAENAALEG [O7]
- interaction score [31]: -2.46
- interaction score [32]: 1.54
- interaction score [33]: -2.89
